According to patent US20200385459A1 (University of Texas, published 2020):
Substitutions are numbered along the chain they refer to. “And” between values parts separate entries of the source, which are not always exact repeats. Equal values may be shown once.

Assays:
[1] = target: T1, His-tagged recombinant human LRP10 protein, LRP10-516H (human) (UniProt Q7Z4F1); assay: ELISA, coated LRP10, antibody at 250 ng/ml
T1 sequence (looked up): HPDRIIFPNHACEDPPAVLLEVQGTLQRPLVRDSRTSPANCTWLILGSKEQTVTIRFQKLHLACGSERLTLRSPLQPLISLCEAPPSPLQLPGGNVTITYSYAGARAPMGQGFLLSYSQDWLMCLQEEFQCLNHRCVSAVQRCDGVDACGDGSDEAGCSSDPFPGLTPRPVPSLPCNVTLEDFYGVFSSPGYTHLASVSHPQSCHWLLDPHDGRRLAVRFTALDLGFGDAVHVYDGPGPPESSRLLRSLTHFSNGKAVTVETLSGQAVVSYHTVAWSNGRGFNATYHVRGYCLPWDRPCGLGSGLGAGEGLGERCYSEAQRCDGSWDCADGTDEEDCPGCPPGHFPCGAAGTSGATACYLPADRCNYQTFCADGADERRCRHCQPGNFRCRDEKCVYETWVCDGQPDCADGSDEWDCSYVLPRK

[2] = target: T1, His-tagged recombinant human LRP10 protein, LRP10-516H (human); assay: ELISA, coated LRP10, antibody at 0.24 ng/ml
[3] = target: T1, His-tagged recombinant human LRP10 protein, LRP10-516H (human); assay: ELISA, coated LRP10, antibody at 0.98 ng/ml
[4] = target: T1, His-tagged recombinant human LRP10 protein, LRP10-516H (human); assay: ELISA, coated LRP10, antibody at 1000 ng/ml
[5] = target: T1, His-tagged recombinant human LRP10 protein, LRP10-516H (human); assay: ELISA, coated LRP10, antibody at 3.91 ng/ml
[6] = target: T1, His-tagged recombinant human LRP10 protein, LRP10-516H (human); assay: ELISA, coated LRP10, antibody at 62.5 ng/ml
[7] = target: T1, His-tagged recombinant human LRP10 protein, LRP10-516H (human); assay: ELISA, coated LRP10, antibody at 15.63 ng/ml
[8] = target: T1, His-tagged recombinant human LRP10 protein, LRP10-516H (human); assay: ELISA, coated LRP10, antibody at 0 ng/ml (background well)
[9] = target: T2, His-tagged recombinant human LRP10 protein, LRP10-516H (human, UniProt Q7Z4F1 17-440); assay: ELISA, coated LRP10, serial dilution of antibody
T2 construct: The ELISA protocol calls the coated protein 'LR10'; also called target protein LR10; target antigen; not shown: His tag
T2 sequence (looked up): T1 sequence (looked up)
Procedure: 1) Coat the target protein LR10 (1 μg/ml, 0.1 μg/well) in a certain coating buffer (0.1 M NaHCO₃, pH 9.6). Incubate overnight at 4° C. [0234] 2) Wash the wells 3 times with 300 μL washing buffer (0.1% PBST) per well. [0235] 3) Block the wells with 300 μL blocking buffer (3% BSA) for 1 h at 37° C. [0236] 4) Discard the blocking buffer and wash the plate 3 times with the washing buffer, slapping the plate face-down onto a clean section of paper towel each time. [0237] 5) Add 100 μL of a serial dilution of antibodies per well. Incubate at 37° C. for 1 h. [0238] 6) Wash 3 times with the washing buffer. Dilute HRP-goat anti-human IgG (1:4,000) in the blocking buffer (3% BSA). Add 100 μL of diluted conjugate per well and incubate at 37° C. for 1 h. […] 7) Wash 3 times with the washing buffer. Dissolve Tetramethylbenzidine (TMB) substrate (Sigma, USA) in […] citrate-phosphate buffer and add 1 μL/mL H₂O₂ to the solution. Add 100 μL of substrate solution per well and incubate at room temperature for 15 minutes. [0240] 8) Add 100 μL of 2 mol/L H₂SO₄ solution to stop the reaction. [0241] 9) Read plates using a microplate reader set at 490 nm.
For the 8 well-expressed antibodies, we tested their binding activities to the target antigen by ELISA (Table 7 and FIG. 11).

[10] = target: T3, mouse LRP10 (Lrp10) on C57BL/6 T cells (mouse (Mus musculus), UniProt Q7TQH7 18-713); assay: cell-based or functional assay
T3 sequence (looked up): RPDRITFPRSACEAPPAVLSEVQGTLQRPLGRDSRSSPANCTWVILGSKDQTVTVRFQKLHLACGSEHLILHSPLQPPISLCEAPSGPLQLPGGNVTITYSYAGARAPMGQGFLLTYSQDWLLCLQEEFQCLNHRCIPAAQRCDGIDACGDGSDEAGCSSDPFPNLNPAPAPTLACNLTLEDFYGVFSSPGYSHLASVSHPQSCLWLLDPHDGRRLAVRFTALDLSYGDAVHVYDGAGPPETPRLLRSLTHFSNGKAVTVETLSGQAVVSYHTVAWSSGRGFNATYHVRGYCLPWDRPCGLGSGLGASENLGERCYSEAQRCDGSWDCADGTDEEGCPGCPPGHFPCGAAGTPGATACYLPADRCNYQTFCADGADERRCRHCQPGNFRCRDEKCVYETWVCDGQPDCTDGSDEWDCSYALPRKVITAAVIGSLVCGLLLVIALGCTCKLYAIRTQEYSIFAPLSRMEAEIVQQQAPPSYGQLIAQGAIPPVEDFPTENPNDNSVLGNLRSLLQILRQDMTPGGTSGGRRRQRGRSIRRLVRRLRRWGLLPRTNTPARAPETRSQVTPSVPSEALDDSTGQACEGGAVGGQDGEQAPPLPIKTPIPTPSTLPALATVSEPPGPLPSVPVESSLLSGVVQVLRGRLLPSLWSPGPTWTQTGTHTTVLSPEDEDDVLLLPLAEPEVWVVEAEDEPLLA

[11] = target: T2, His-tagged recombinant human LRP10 …; assay: ELISA on coated LRP10

B1: Clone 6 (AB6) (antibody, human IgG1, V domains shown)
VH: EVQLLESGGGLVQPGGSLRLSCAASGFTFSSYAMSWVRQAPGKGLEWVSSIPSRGQATKYADSVKGRFTISRDNSKNTLYLQMNSLRAEDTAVYYCAKSRHTFDYWGQGTLVTVSS
VL: DIQMTQSPSSLSASVGDRVTITCRASQSISSYLNWYQQKPGKAPKLLIYDASLLQSGVPSRFSGSGSGTDFTLTISSLQPEDFATYYCQQTSAGPGTFGQGTKVEIK
ELISA signal (plate read at 490 nm) [1]: 0.128 and 0.133
ELISA signal (plate read at 490 nm) [2]: 0.0606 and 0.0573
ELISA signal (plate read at 490 nm) [3]: 0.0588 and 0.0556
ELISA signal (plate read at 490 nm) [4]: 0.289 and 0.349
ELISA signal (plate read at 490 nm) [5]: 0.0615 and 0.0582
ELISA signal (plate read at 490 nm) [6]: 0.09 and 0.0989
ELISA signal (plate read at 490 nm) [7]: 0.0656 and 0.0659
ELISA signal (plate read at 490 nm) [8]: 0.0595 and 0.0594

B2: Clone 1 (AB1) (antibody, V domains shown)
VH: B1 VH with Y32Q, S53P, R54G, Q56P, A57N, R100Y, H101P, T102S
VL: B1 VL with D50N, L53D, T91S, A93R, G94T, G96T
notes: also called AB1 (L1 + H1); AB1: L1 + H1
EC50 [9]: 0.013 µg/mL

B3: Clone 2 (AB2) (antibody, human IgG1, V domains shown)
VH: B1 VH with Y32Q, S53P, R54G, Q56P, A57N, R100Y, H101P, T102S
VL: B1 VL with D50A, L53P, T91V, S92A, A93R, G94T, G96N
notes: Expressed as a full antibody in 293F cells, protein A purified; also called AB2 (L2 + H1); AB2: L2 + H1
migration rate of T cells in response to SDF-1, transwell [10]: ~2 fold higher than vehicle
EC50 [9]: 0.0148 µg/mL

B4: Clone 8 (AB8) (antibody, human IgG1, V domains shown)
VH: B1 VH with P14L, Y32Q, S53P, R54G, Q56P, A57N, R100Y, H101P, T102S
VL: B1 VL with D50N, L53D, T91S, A93R, G94T, G96T
notes: Expressed as a full antibody in 293F cells, protein A purified; also called AB8 (L1 + H7); AB (L1 + H7)
migration rate of T cells in response to SDF-1, transwell [10]: ~2 fold higher than vehicle
EC50 [9]: 0.0117 µg/mL

B5: Clone 9 (AB9) (antibody, human IgG1, V domains shown)
VH: B1 VH with P52Y, S53T, R54S, Q56A, K59T, R100Y, H101P, T102S
VL: B1 VL with D50N, L53D, T91S, A93R, G94T, G96T
notes: Expressed as a full antibody in 293F cells, protein A purified; also called AB9 (L1 + H8); AB9: L1 + H8
binding result [11]: no binding

B6: Clone 7 (AB7) (antibody, human IgG1, V domains shown)
VH: B1 VH with P52A, S53T, R54T, Q56N, A57T, K59Y, S99N, R100T, H101A
VL: B1 VL with D50A, L53T, T91N, S92D, A93Y, G94Y, G96T
notes: Expressed as a full antibody in 293F cells, protein A purified; also called AB7 (L7 + H6); AB7: L7 + H6
migration rate of T cells in response to SDF-1, transwell [10]: ~2 fold higher than vehicle
EC50 [9]: 0.0357 µg/mL

B7: Clone 3 (AB3) (antibody, human IgG1, V domains shown)
VH: B1 VH with S50Q, P52G, S53T, R54M, Q56R, A57P, K59T, R100G, H101K, T102K
VL: B1 VL with D50R, L53R, T91P, S92T, A93S, G94L, G96L
notes: Expressed as a full antibody in 293F cells, protein A purified; also called AB3 (L3 + H2); AB3: L3 + H2
EC50 [9]: 0.0349 µg/mL
